Laboratory results taken from PMC7423246, “A Peptide–Lectin Fusion Strategy for Developing a Glycan Probe for Use in Various Assay Formats” (Chemosensors (Basel, Switzerland), 2019).

Target: HIV coat protein gp120 (oligomannose bearing) (HIV (Human Immunodeficiency Virus), UniProt P04578 33-511, high-mannose-type N-glycans (oligomannose), sites not stated)
Assay: MST; NT-647 labeled PFA held constant, serial dilution of gp120, in 0.1% PBST; 'effective' binding affinity
Conditions: both partners purified

B1: NT-647 labeled PFA (natural protein)
chain: MSKYAVANQWGGSSAPWHPGGTWVLGARDNQNVVAIEIKSGDGGKSFTGTMTYAGEGPIGFKAQRTGQNQYNVENQWGGNDAPWHPGGKWVIGGRDNQNVIALSVTSSDGGKNLSGTNTYANEGPIGFRGQIEVSHPQAPF
modifications: NT-647 fluorophore on amines (amine-reactive NT-647-NHS labelling kit)
B1 was tested. Which Kd did it give?
The Kd was 4.1 ± 1.4 nM.
